Laboratory results published in US20170204167A1 (INSTITUTE FOR RESEARCH IN BIOMEDICINE, published 2017).

B1: FI6 variant 3 (antibody, V domains shown)
VH: QVQLVESGGGVVQPGRSLRLSCAASGFTFSTYAMHWVRQAPGKGLEWVAVISYDANYKYYADSVKGRFTISRDNSKNTLYLQMNSLRAEDTAVYYCAKDSQLRSLLYFEWLSQGYFDYWGQGTLVTVSS
VL: not shown
B2: FI6 variant 2 (antibody, V domains shown)
VH: QVQLVQSGGGVVQPGRSLRLSCVASGFTFSTYAMHWVRQAPGRGLEWVAVISYDGNYKYYADSVKGRFSISRDNSNNTLHLEMNTLRTEDTALYYCAKDSQLRSLLYFEWLSQGYFDPWGQGTLVTVTS
VL: DIQMTQSPDSLAVSLGARATINCKSSQSVTFNYKNYLAWYQQKPGQPPKVLIYWASARESGVPDRFSGSGSGTDFTLTISSLQAEDVAVYYCQQHYRTPPTFGQGTKVEIK
B3: FI28 variant 1 (antibody, V domains shown)
VH: EVQLVESGGGAVQPGESLKLSCAASGFTFSNYGMHWVRQAPGKGLEWVAVISYDGSNKYYADSVKGRFTISRDNSKDTLYLQMNSLRAEDTALFYCAKERPLRLLRYFDWLSGGANDYWGQGTLVTVSS
VL: DIVMTQSPDSLAVSLGERATINCKSSQSVLYSSNNKNYLAWYQQKPGQPPKLLIDWASTRESGVPDRFSGSGSGTDFTLTISNLQVEDVAVYYCQQYYRSPSFGQGTKLEIK

How the values were obtained:
[1] = biological target: HA of H12N5 A/duck/Alberta/60/76 on transfected 293 cells (influenza A virus H12N5 …, UniProt P03446 17-564); assay: staining of HA-transfected 293 cells
[2] = biological target: HA of H14N5 A/mallard/Astrakhan/263/82 on transfected 293 cells (influenza A virus H14N5 …, UniProt P26136 18-568); assay: staining of HA-transfected 293 cells
[3] = biological target: T1, HA of H7N1 A/ck/FPV/Rostock/34 (influenza A virus H7N1 …, UniProt P03459 19-563); assay: cell-based or functional assay
HA of H5 A/VN/1194/04 = HA of H5 A/VN/1194/04 (influenza A virus H5 A/VN/1194/04); assay: cell-based or functional assay
[4] = biological target: HA of H2N2 A/Singapore/1/57 (influenza A virus H2N2 A/Singapore/1/57, UniProt Q67333 16-525); assay: ELISA on recombinant or purified HA
[5] = biological target: HA of H13N6 A/gull/Maryland/704/77 (ELISA antigen) (influenza A virus H13N6 …, UniProt P13103 19-532); assay: ELISA on recombinant or purified HA
[6] = biological target: HA of H4N6 A/duck/Czechoslovakia/56 (ELISA antigen) (influenza A virus H4N6 …, UniProt P19696 17-527); assay: ELISA on recombinant or purified HA
HA of H1N1 A/PR/8/34 = HA of H1N1 A/PR/8/34 (influenza A virus H1N1 A/PR/8/34, UniProt P03452 18-565); assay: cell-based or functional assay
HA of H5N1 A/AH/1/05 = HA of H5N1 A/AH/1/05 (influenza A virus H5N1 A/AH/1/05); assay: cell-based or functional assay
HA of H5N1 A/HK/213/03 = HA of H5N1 A/HK/213/03 (influenza A virus H5N1 A/HK/213/03); assay: cell-based or functional assay
[7] = biological target: T1, HA of H7N1 A/ck/FPV/Rostock/34; assay: cell-based or functional assay; remark: listed apart in the source
HA of H5N1 A/HK/491/97 = HA of H5N1 A/HK/491/97 (influenza A virus H5N1 A/HK/491/97); assay: cell-based or functional assay
HA of H5N1 A/INDO/5/05 = HA of H5N1 A/INDO/5/05 (influenza A virus H5N1 A/INDO/5/05); assay: cell-based or functional assay
HA of H5N1 A/WS/MONG/05 = HA of H5N1 A/WS/MONG/05 (influenza A virus H5N1 A/WS/MONG/05); assay: cell-based or functional assay
[8] = biological target: HA of H7N1 A/ck/IT/13474/99 (influenza A virus H7N1 A/ck/IT/13474/99); assay: cell-based or functional assay

Binder | binding result [1] | binding result [2] | Neutralization H7 A/ck/FPV Rostock/34 IC50 (µg/ml), pseudovirus [3] [µg/mL] | Neutralization H5 A/VN/1194/04 IC50 (µg/ml), pseudovirus (HA of H5 A/VN/1194/04) [µg/mL] | EC50 [4] [µg/mL] | EC50 [5] [µg/mL] | EC50 [6] [µg/mL] | Neutralization of infectious viruses (IC50, µg/ml) (HA of H1N1 A/PR/8/34) [µg/mL] | Neutralization of HA-pseudotypes (IC90, µg/ml) (HA of H5N1 A/AH/1/05) [µg/mL] | Neutralization of HA-pseudotypes (IC90, µg/ml) (HA of H5N1 A/HK/213/03) [µg/mL] | Neutralization of HA-pseudotypes (IC90, µg/ml) [7] [µg/mL] | Neutralization of HA-pseudotypes (IC90, µg/ml) (HA of H5N1 A/HK/491/97) [µg/mL] | Neutralization of HA-pseudotypes (IC90, µg/ml) (HA of H5N1 A/INDO/5/05) [µg/mL] | Neutralization of HA-pseudotypes (IC90, µg/ml) (HA of H5N1 A/WS/MONG/05) [µg/mL] | Neutralization of HA-pseudotypes (IC90, µg/ml) [8] [µg/mL]
B1 | binds | binds | 0.0274 | 0.0035 | 0.021 | 0.062 | 0.185 | – | – | – | – | – | – | – | –
B2 | binds | binds | 0.02 | 0.0054 | 0.029 | 0.088 | – | 2.2 | 0.05 | 0.02 | 0.09 | 0.07 | 0.31 | 0.03 | 1.87
B3 | – | – | – | – | – | – | – | > 100 | 0.05 | 0.33 | > 100 | 0.05 | 0.35 | 0.04 | > 100
